Consider 41 sequences from the nanobody polyreactivity screen of Harvey et al. (2022).

This data set is described as follows: yeast display, Sf9 membrane polyspecificity reagent, FACS + sequencing; frameworks hold sequencing errors. The procedure, abridged: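 Galactose induction of a Saccharomyces cerevisiae BJ5465 synthetic nanobody display library ran 36–48 hours. The cells were then stained for 1 hour at 4 °C with 10% biotinylated, detergent-solubilized Sf9 membrane reagent, pulled down on streptavidin microbeads and FACS-sorted into low and high (top ~1%) gates on expression and reagent-binding fluorescence. Labels for polyreactivity follow the gate of origin.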
Turning to “QVQLVESGGGLVQAGGSLRLSCAASGYTFSDYAMGWYRQAPGKERELVAAISWSGGSTYYADSVKGRFTISRDNAKNTVFLQMNSLKPEDTAVYYCAAKWYAPDLLYYYWGQGTQVTVSS”, the “polyreactivity (PSR sort gate)” value is given as “low polyreactivity”.
The result for “QVQLVESGGGLVQAGGSLRLSCAASGYTFSHYAMGWYRQAPGKERELVAGITWSGGSTYYADSVKGRFTISRDYAKNTVYLQMNSLKPEDTSVYYCAAKYYWYYSYSGIPLFDYWGQGTQVTVSS” reads “low polyreactivity”; that for “QVQLVESGGGLVQAGGSLRLSCAASGYTFSLYAMGWYRQAPGKERELVAAISSGDRTFYADSVKGRFTISRDNAKNTVYLQMNSLKPEDTAVYYCAARRYYVASIYRYDSWGQGTQVTVSS”, “high polyreactivity”; that for “QVQLVESGGGLVQAGGSLRLSCAASGYTFSPNDMGWYRKAPGKERELVAAITSSVGSTYYADSVKGRFTISRDNAKNTVYLQMNSLKPEDTAVYYCARTYQVGDSIDDYWGQGTQVTVSS”, “low polyreactivity”.
Then “QVQLVESGGGLVQAGGSLRLSCAASGYTFSQNAMGWYRQAPGKERELVAAITWSGAGTYYADSVKGRFTISRDNAKNTVYLQMNSLKPEDTAVYYCAAREWTSQDRQHNYWGQGTQVTVSS”, with “low polyreactivity”; and “QVQLVESGGGLVQAGGSLRLSCAASGYTFSSNAMGWYRQATGKVSELVATNSSGGSTYYADSVKGRFTISRDNAKNTVYLQMYSLKPEDTAVYYCAADDLGWWFYSGGEDYYYWGQGTQVTVSS”, with “low polyreactivity”.
The result for “QVQLVESGGGLVQAGGSLRLSCAASGYTFSSYTMGWYRQAPRKERELVAAITYSGGSTYYADSVKGRFTISRDNAKNTVYLQMNSLKPEDTAVYYCNARGRYAYAYWGQGTQVTVSS” reads “low polyreactivity”; that for “QVQLVESGGGLVQAGGSLRLSCAASGYTFSVNALGWYRQAPGKERELVATINSSGGGTYYADSVKGRFTISRDNAKYTVYLQMNSLKPEDTAVFYCAADGYWYGDIYPSDYRWYDYWGQGTQVTVSS”, “low polyreactivity”.
With “QVQLVESGGGLVQAGGSLRLSCAASGYTFSYYAMGWYRQAPGKERELVARITYSGGSTYYADSVKGRFTISRDNAKNTVYLQMNSLKPEDTAVYFCAARLRYPYWYYNWGQGTQVTVSS”, the “polyreactivity (PSR sort gate)” value is recorded as “high polyreactivity”.
Then “QVQLVESGGGLVQAGGSLRLSCAASGYTFTGYAMGWYRQAPGKERELVAAITSIGGSTYYADSVKGRFTISRDNAKTTVYLQMNSLKPEDTAVYYCAKDALVIDGGGGYDYWGQGTQVTVSS”, with “low polyreactivity”.
As for “QVQLVESGGGLVQAGGSLRLSCAASGYTFTIYAMGWYRQAPGKQRELVAAITGRGGRTNYADSVKGRFTISRDNAKNTVYLQMNSLKPEDTAVYYCNAVTKVVYHGPYGYDYWGQGTQVTVSS”, the “polyreactivity (PSR sort gate)” value is reported as “high polyreactivity”.
In the case of “QVQLVESGGGLVQAGGSLRLSCAASGYTFTSNDMGWYRQAPGKERELFAAITRVGSTNYADSVKGRFTISRDNAKNTVYLQMNSLKPEDTAVYYCAADLWQRHYLVGFGIRYDYWGQGTQVTVSS”, the “polyreactivity (PSR sort gate)” value is “low polyreactivity”.
As to “QVQLVESGGGLVQAGGSLRLSCAASGYTFTVYAMGWYRQAPGKERELVAAITWNGASTYYADSVKARFTISRDNAKKTVYLQMNSLKPEDTAVYNCADPNYFYRDRSRLDYWGQGTQVTVSS”, the “polyreactivity (PSR sort gate)” value is given as “low polyreactivity”.
The result for “QVQLVESGGGLVQAGGSLRLSCAASGYTFVLYAMGWYRQAPGKERELVAAIRWSGGTTYYADSVKGRFTISRDNAKNTVYCQMNSLKPEDTAVYYCAGWDYTGNVVTGDYWGQCTQVTVSS” reads “high polyreactivity”; that for “QVQLVESGGGLVQAGGSLRLSCAASGYTFVNYAMGWYRQAPGKERELVAAITSRGSSTYYADSVKGRFTISRDNAKNTVYLQMKSLKPEDTAVYYCFVHVRNHDYWGQGTQVTVSS”, “high polyreactivity”.
Then “QVQLVESGGGLVQAGGSLRLSCAASGYTFVTNAMGWYRQAPGKERELVAAITTVGSTNYADSVKGRFTISRDNAKNTVYLQMNSLKPEDTAVYYCNANWYEWYDWGQGTQVTVSS”, with “low polyreactivity”; and “QVQLVESGGGLVQAGGSLRLSCAASGYTFYGYAMGWYRQAPGKERELVAAISGSGGSTYYADSVKGRFTISRDNAKNTVYLQMNSLKPEDTAFYYCNKARYAIYRGDGYDYWGQGTQVTVSS”, with “high polyreactivity”.
Regarding “QVQLVESGGGLVQAGGSLRLSCAASGYTFYIYAMGWYRQAPGKERELVATISSSGGGTYYADSVKGRFTISRDNAKNTVYLQMNSLNPEDTAVYYCNADGWYWQAQGYDYWGQGTQVTVSS”, the “polyreactivity (PSR sort gate)” value was “low polyreactivity”.
Consider “QVQLVESGGGLVQAGGSLRLSCAASGYTFYQNAMGWYRQAPGKERELVAAITFRTGSTYYADSVKGRFTISRDNAKNTVYLQMNSLKPEDTAVYYCAATRFLRDWWYGYWGQGTQVTVSS”, for which the “polyreactivity (PSR sort gate)” value is on record as “low polyreactivity”.
As for “QVQLVESGGGLVQAGGSLRLSCAASGYTFYSNAMGSYRQAPGKERELVASIRSRGRSTYYADSVKGRFTISRDNAKNTVYFQMNSLKPEDTAVYYCAALPNTPAVYAYDYWGQGTQVTVSS”, the “polyreactivity (PSR sort gate)” value is recorded as “low polyreactivity”.
With “QVQLVESGGGLVQAGGSLRLSCAASGYTFYSYALGWYRQAPGKERELVAAITSGGRTNYADSVKGRFTISRDNAKNTVYLQMNSLKPEDTAVYYCAAYVFRAYGRYYYWGQGTQVTVSS”, the “polyreactivity (PSR sort gate)” value is “high polyreactivity”.
As to “QVQLVESGGGLVQAGGSLRLSCAASGYTFYTNAMGWYIQAPGKERELVASIRSRGRSTYYADSVKGRFTISRDNAKNTVYLQMNSLKPEDTAVFYCAALPNIPAVYAYDYWGQGTQVTVSS”, the “polyreactivity (PSR sort gate)” value is listed as “low polyreactivity”.
Then “QVQLVESGGGLVQAGGSLRLSCAASGYTFYWNAMGWYRQAPGKEREFVASFSGTSTYYADSVKGRFTISRDNAKNTVYLQMNSLKREDTAVYYCNARLTLGPRKYEYWGPGTQVTVSS”, with “low polyreactivity”.
Turning to “QVQLVESGGGLVQAGGSLRLSCAASGYTFYYAMGWYRQAPGKERELVAAISAGGGRTYYADSVKGRFTISRDNAKNTVYLQMNSLKPEDTAVYYCNRVYRLTAYGYDYWGQGTQVTVSS”, the “polyreactivity (PSR sort gate)” value is recorded as “high polyreactivity”.
The result for “QVQLVESGGGLVQAGGSLRLSCAASGYTFYYNAMGWYRQATGKERELVAAISWSTSGTYYADSVKGRFTISRDNAKNTVYLQMYSLKPEYTAVYYCAAPSSGTITYDYWGQGTQVTVSS” reads “low polyreactivity”; that for “QVQLVESGGGLVQAGGSLRLSCAASGYTIIVNAMGWYRQAPGKERELVAAISWSSVSTYYADSVKGRFTISRDNAKNTVYLQMNSLKPEDTAVYYCAAEGYDYSQWFDYWGQGTQVTVSS”, “high polyreactivity”; that for “QVQLVESGGGLVQAGGSLRLSCAASGYTIRGYVMGWYRQAPGKERELVAAISASGGRTYYADSVKGRFTISRDYATNTVYLLMNSLKPEDTAVYYCAADSSRTPLEFDYWGQGTQVTVSS”, “high polyreactivity”.
Take “QVQLVESGGGLVQAGGSLRLSCAASGYTIVSYAMGWERQAPGKERELVASIRWRGGRTYYADSVKGRFTISRDNAKNTVYLQMNSLKPEDTAVYYCAASTYYSPYVAHYGYWGQGTQVTVSS”: the “polyreactivity (PSR sort gate)” value was “high polyreactivity”.
Then “QVQLVESGGGLVQAGGSLRLSCAASGYTLDNYAMGWYRQAPGKERELVAGITFSGGSTFYADSVKGRFTISRDNAKNTVYLQMNSLKPEDTAVYYCAADAEFQADHKYGYWGQGSQVTVSS”, with “low polyreactivity”; and “QVQLVESGGGLVQAGGSLRLSCAASGYTLSVNAMGWYRQAPGKERELVATIDFGGGSTYYADSVKGRFTISRDNAKNTVYLQMNSLKPEDTAVYYCNTEWTSLSKSSLGGRYDHWGQGTQVTVSS”, with “low polyreactivity”.
The result for “QVQLVESGGGLVQAGGSLRLSCAASGYTSRYYAMGWYRQAPGKERELVAAITSGGSTNYADSVKGRFTISRDNAKNTVYLQMNSLKPEDTAVYYCAKGQYPWSYVLQTYIYDYWGQGTQVTVSS” reads “low polyreactivity”; that for “QVQLVESGGGLVQAGGSLRLSCAASGYVMGWYRQAPGKEREMVAAITRGTSTYYADSVKGRFTISRDNAKNTVYLQLNSLKPEDTAVYFCADRHNTGSSRHYGYWGQGTQVTVSS”, “low polyreactivity”.
Regarding “QVQLVESGGGLVQAGGSLRLSCAASGYVYVMGWYRQAPGKERELVAAISKNGGSTYYADSVKGRFTISRYNAKNTVYLQMNSLKPEDTAVYYCAAVSYHKTEYDYWGQGTQVTVSS”, the “polyreactivity (PSR sort gate)” value is reported as “high polyreactivity”.
The result for “QVQLVESGGGLVQAGGSLRLSCAASGYYAMGWYRQAPGKERELVPAITWSGGTTYYADSVKGRFTISRDNAKNTVYLQMNSLKPEDTAVYYCNADFVRYTRHKKYYYWGQGTQVTVSS” reads “low polyreactivity”; that for “QVQLVESGGGLVQAGGSLRLSCAASRFTFSYYAMVWYRKAHVKERELVAAISWRGGTPYADSVKGRFTISRDNAKKTVYLQMNSLKPEDTAVYYCNTAYQVYWRGNYWGQGTQVTVSS”, “high polyreactivity”.
Then “QVQLVESGGGLVQAGGSLRLSCAASRIIFSYNPMGWYRQAPGKERELVAASSYGGRTYYAVSVKGRFTISRDNAKNTVDLQMKSLKPEDTAVYYCATRSPHRLYGDYYDYWGLGTQVTVSS”, with “high polyreactivity”; and “QVQLVESGGGLVQAGGSLRLSCAASRIIFYAYAMRWYRQAPGNERELVAAMSWSGGSTYYADSVKGRYTISRDNAKNTFYLQMNSLKPEDTAVYYCAAYFNIYGLEYDYWGQGTQVTVSS”, with “high polyreactivity”; and “QVQLVESGGGLVQAGGSLRLSCAASRITFIYYAMGSYRQAPGKERELVAAINRSGGSTYYADSVKGRFTISRDIAKNTVYLQMNSLKPEDTAVYYCNADRSYWYIHSEYEYWGQGTQVTVSS”, with “high polyreactivity”.
The result for “QVQLVESGGGLVQAGGSLRLSCAASRNNYPYYAMGWSRQEPGKERELVAAISGSGERTYYADSVKGRFTISRDNAKNTVFLQMNSLKPEDTAVYYCAAYRRYYGWYEYWGQGTLVTVSS” reads “high polyreactivity”.
On to “QVQLVESGGGLVQAGGSLRLSCAASRRNFGRYAMGWYRQAPGKETELVARISSGGSTHYADSVKGRFTISRDNAMNSVFLQMNSLKPEDTAVYYCAAGWGYWRSYGSWGQGTEVTVSS”, for which the “polyreactivity (PSR sort gate)” value was “high polyreactivity”.
In the case of “QVQLVESGGGLVQAGGSLRLSCAASRSIFLYYAMGWYRQAPGKERELVAAISYSGSGTYADSVKGRFTISRDNAKNTVYLQMNSLKPEDTAVSYCNVDYGSNSYDYWGQGTQVTVSS”, the “polyreactivity (PSR sort gate)” value is reported as “low polyreactivity”.
